Data set [1] concerns the target rGrh (Grainyhead, full-length recombinant) (UniProt P13002-2 1-1032). Description: EMSA. (In general: In EMSA bound probe runs differently from free probe, usually more slowly.)
In data set [2] the target is rZld (Zelda, full-length recombinant) (UniProt Q9VWC6 1-1596). Description: EMSA.
Sequence of rZld (Zelda, full-length recombinant) (Q9VWC6 whole entry): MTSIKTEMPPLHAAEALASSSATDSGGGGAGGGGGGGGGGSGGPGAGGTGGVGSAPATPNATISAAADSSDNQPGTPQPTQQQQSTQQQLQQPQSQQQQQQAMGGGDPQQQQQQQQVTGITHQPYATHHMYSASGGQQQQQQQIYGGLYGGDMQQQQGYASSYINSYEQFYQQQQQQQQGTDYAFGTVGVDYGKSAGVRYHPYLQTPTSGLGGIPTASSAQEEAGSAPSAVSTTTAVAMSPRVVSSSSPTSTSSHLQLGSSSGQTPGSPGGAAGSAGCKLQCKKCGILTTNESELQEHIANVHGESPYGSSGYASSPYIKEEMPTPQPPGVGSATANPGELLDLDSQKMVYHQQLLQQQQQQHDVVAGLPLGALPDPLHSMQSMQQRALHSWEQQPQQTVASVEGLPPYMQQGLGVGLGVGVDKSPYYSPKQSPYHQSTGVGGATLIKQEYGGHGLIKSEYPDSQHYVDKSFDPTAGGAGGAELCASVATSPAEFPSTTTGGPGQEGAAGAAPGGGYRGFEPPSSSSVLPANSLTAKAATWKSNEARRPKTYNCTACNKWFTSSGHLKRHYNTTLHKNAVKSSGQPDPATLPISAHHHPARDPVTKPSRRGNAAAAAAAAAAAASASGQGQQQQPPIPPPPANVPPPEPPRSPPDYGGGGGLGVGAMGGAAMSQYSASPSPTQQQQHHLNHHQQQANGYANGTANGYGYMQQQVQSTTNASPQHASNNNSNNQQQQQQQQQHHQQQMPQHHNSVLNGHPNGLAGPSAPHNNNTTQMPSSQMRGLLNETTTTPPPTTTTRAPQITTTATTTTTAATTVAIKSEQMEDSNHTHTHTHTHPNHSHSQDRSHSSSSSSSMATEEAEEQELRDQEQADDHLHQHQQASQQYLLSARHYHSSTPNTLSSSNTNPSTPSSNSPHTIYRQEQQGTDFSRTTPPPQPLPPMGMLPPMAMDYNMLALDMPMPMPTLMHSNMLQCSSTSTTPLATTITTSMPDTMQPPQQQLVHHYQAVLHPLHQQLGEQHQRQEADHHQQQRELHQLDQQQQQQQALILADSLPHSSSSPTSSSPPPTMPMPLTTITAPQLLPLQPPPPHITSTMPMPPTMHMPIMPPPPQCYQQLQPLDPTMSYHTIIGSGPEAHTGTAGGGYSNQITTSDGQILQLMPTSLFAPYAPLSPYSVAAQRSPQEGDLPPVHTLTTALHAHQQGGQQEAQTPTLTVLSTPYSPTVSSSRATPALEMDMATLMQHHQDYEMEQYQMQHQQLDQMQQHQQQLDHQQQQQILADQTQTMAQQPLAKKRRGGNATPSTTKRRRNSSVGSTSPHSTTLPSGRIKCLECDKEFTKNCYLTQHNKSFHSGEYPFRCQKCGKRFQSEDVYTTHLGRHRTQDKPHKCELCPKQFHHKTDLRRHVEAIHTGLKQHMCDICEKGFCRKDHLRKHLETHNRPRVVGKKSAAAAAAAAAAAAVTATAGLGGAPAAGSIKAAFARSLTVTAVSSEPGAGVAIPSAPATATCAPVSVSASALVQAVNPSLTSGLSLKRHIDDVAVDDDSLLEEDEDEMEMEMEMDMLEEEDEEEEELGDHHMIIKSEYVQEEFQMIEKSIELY

B1: CAGGCAG probe (dsDNA)
DNA 1: CTATTCAGGCAGACACTGTA
DNA 2: TACAGTGTCTGCCTGAATAG
In the case of B1, in data set [1], the binding result is “binds”.

B2: CAGGTAG probe (dsDNA)
DNA 1: CTATTCAGGTAGACACTGTA
DNA 2: TACAGTGTCTACCTGAATAG
Consider B2, for which the binding result in data set [1] and in data set [2] was “binds” each time.

For the origin of these results see PMC2927720.
